One experiment concerns the target T1, Wildtype human PAR 1 (human, UniProt P25116 42-425).
T1 construct: BacMam-infected HEK293f cells in the IP-One assay
T1 sequence: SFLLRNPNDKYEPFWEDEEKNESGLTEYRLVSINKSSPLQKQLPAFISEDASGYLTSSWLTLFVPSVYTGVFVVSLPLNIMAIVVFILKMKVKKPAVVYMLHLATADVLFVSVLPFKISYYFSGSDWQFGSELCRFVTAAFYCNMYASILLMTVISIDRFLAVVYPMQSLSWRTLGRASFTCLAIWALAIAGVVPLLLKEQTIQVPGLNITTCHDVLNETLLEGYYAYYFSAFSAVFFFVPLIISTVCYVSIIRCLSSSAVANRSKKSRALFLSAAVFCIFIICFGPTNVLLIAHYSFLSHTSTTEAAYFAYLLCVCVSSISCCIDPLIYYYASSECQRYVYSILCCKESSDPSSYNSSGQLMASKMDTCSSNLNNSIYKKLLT
Put plainly: IntelliCyt flow cytometry, titration of IgG1f_AEASS, S/BG. The protocol:
(§1) To evaluate species cross-reactivity and/or unwanted binding to counter-targets simultaneously, screening in 384-well plate format was performed using the HTFC/iQue screening platform from IntelliCyt. The HTFC/iQue Screening System was also used for evaluation of binding to multiple target cell lines or evaluation of unwanted/non-specific binding in parallel, in other words multiplexing. Different cell populations could be distinguished by pre-labelling with distinct amounts of fluorescent dyes, such as Calcein or Cell-Tracker Green, establishing a unique signature of fluorescence intensity for each cell population, thereby producing a fluorescence coding system. The color-coded cell lines were then physically combined and mixed together with antibodies to be tested. Individual cell-lines could be identified via the fluorescence of the respective cell-line that had been pre-labelled. Crude bacterial cell lysates were combined with cells and incubated for 1 hour at room temperature in the dark, shaking gently. Fluorescence measurement was performed with the IntelliCyt HTFC/iQue device. In between incubation steps, no washing was required. Raw data were evaluated with the help of the ‘ForeCyt’ software. After data acquisition, the cell lines from each sample could be identified according to their fluorescence signature and individually evaluated for antibody binding. […]
(In general: In flow cytometry, cells or beads pass a laser one at a time.)

In experiment [1] the target is T2, Wildtype human PAR2 expressed on cells (human, UniProt P55085 37-397).
T2 sequence: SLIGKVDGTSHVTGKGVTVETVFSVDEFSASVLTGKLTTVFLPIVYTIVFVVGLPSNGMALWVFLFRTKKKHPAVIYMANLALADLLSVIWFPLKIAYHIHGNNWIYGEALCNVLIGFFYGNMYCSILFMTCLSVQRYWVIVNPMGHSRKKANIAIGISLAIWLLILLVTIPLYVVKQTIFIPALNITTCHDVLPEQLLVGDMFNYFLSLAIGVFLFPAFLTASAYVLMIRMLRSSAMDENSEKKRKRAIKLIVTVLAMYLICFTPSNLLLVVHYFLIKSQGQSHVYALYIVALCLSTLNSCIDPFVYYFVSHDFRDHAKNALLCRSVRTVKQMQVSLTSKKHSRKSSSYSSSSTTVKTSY
Briefly: cell-based or functional assay.

For experiment [2], the target named is T3, PAR2-3: P157: 1-377, glycosylated, pBacMamHisStrepII, full length (human, UniProt P55085 26-377).
T3 construct: detergent-solubilised analyte in SPR, or on infected cells in flow cytometry; also called FL-N PAR2 StaR; FL-N StaR; not shown: C-terminal StrepII and deca-histidine tags
T3 sequence: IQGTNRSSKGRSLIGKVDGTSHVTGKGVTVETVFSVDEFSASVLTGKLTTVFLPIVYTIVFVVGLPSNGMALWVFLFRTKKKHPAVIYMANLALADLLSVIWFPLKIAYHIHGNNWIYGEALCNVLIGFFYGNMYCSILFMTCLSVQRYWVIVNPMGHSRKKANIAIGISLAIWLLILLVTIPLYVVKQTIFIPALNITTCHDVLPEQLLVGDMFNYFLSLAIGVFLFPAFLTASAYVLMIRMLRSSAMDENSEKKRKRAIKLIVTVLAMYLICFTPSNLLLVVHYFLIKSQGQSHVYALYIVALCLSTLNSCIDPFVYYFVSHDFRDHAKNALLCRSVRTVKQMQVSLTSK
Put plainly: SPR Biacore; IgG captured on anti-human IgG, 100 nM PAR2 analyte; 1:1 model. The protocol:
The antibodies were captured on anti-human IgG chip surface followed by injection of 100 nM PAR2. The data were fitted to 1:1 interaction model except for clone ‘Y021160’ in which case heterogeneous ligand model was used and component with slow dissociation was used for comparison.
(§2) For three purified IgG1f_AEASS clones Y021171, Y022054 and Y022063 affinities to human PAR2-3 variant (P157: 1-377, glycosylated, pBacMamHisStrepII, full length) were determined by SPR immobilizing the IgG and probing with detergent (LMNG/CHS) solubilized FL-N PAR2 StaR. Affinities were 22 nM and 20 nM for Y022063 and Y021171, respectively.
On the technique in general: SPR reads the build-up and loss of mass on a sensor chip optically.

The target in experiment [3] is T4, Mouse PAR2 on Flp-In CHO cells (mouse, UniProt P55086 39-399).
T4 construct: whole, on cells
T4 sequence (looked up): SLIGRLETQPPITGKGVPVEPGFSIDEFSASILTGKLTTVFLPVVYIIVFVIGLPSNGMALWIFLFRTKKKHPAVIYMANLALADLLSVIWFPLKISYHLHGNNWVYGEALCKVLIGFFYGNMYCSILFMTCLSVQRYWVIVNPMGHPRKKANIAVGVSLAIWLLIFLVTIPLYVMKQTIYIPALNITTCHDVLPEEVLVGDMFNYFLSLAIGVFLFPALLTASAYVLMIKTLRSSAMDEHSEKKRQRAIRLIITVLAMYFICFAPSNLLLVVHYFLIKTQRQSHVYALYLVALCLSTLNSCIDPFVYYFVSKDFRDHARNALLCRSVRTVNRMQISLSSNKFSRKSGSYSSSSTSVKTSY
Put plainly: FACS titration on CHO mouse Par2 cells, RLU [continued) C]. From the text: Binding events to cell surface expressed antigen were identified by flow cytometry using either crude E. coli lysates from the panning output or purified antibodies. High throughput primary screens of panning outputs from differential whole cell pannings (DWCP) were mainly performed on human wild type PAR2-expressing Flp-In CHO cells (Flp-In CHO_huPAR2), GNTI BacMam wild type PAR2 cells and GNTI BacMam truncated PAR2 StaR versus parental Flp-In CHO cells (PAR2 negative) or non-infected HEK293GNTI-cells. Candidates showing an elevated background binding to parental Flp-In CHO cells were ascribed as either non-specific or off-target binders. All steps were performed in FACS buffer including FCS and sodium azide to prevent potential receptor internalization. Cell suspensions were transferred into microtiter plates and antibody samples were added followed by subsequent incubation of plates at 4° C. Sample volume and cell-number were adjusted to the plate type used. Following incubation, cells were spun down and washed with FACS buffer. Fluorophore-conjugated secondary reagents were used for detection of bound antibodies. Plates were measured using the BD FACS Array or IntelliCyt HTFC/iQue System and data was analysed using FlowJo, ForeCyt or proprietary software tools (FIG. 3).

The target of experiment [4] is T5, V5His-huPAR2 on Flp-In CHO cells (human, UniProt P55085 37-397).
T5 sequence: T2 sequence
Briefly: IntelliCyt flow cytometry, titration of IgG1f_AEASS on Flp-In CHO_V5His_huPAR2 cells, S/BG. The protocol: as §1

The target of experiment [5] is T2, Wildtype human PAR2 expressed on cells. Briefly: cell-based or functional assay. The source holds these as a separate data set.
In experiment [6] the target is Cynomolgus PAR2 on BacMam-infected HEK293 cells (cynomolgus). Briefly: cell-based or functional assay.
The next experiment concerns the target Rhesus PAR2 on cells (rhesus (Macaca mulatta)). Put plainly: cell-based or functional assay.
Experiment [7] has as its target T2, Wildtype human PAR2 expressed on cells. Put plainly: IntelliCyt flow cytometry, titration of IgG1f_AEASS on HEK Flp-In TRex 293_huPAR2 expression-induced cells, S/BG. The method, then: as §1
Experiment [8] addresses T3, PAR2-3: P157: 1-377, glycosylated, …. Briefly: SPR Biacore T200; IgG captured on anti-human IgG, 250 nM PAR2 analyte; 1:1 model. The protocol:
(§3) The assay of PAR2 interaction with anti-PAR2 antibodies was carried out using a Biacore T200 instrument (GE Healthcare). Anti-human IgG antibody (Human Antibody Capture Kit, GE Healthcare) was immobilised by amine coupling on a sensor chip CM3 (GE Healthcare) to a surface density of 3500 to 4500 resonance units (RU). Immobilisation was carried out at 25° C. in HBS-EP+ buffer (GE Healthcare). The buffer was then changed to 50 mM HEPES, pH 7.5, 150 mM NaCl, 0.02% LMNG, 0.002% CHS. Each cycle of the PAR2-antibody interaction assay consisted of antibody capture (100 nM antibody injected for 2 min at a flow rate of 5 μL/min), PAR2 injection (blank or 250 nM, with contact and dissociation times of 2 and 3 minutes, respectively, at a flow rate of 20 μl/minute), and chip surface regeneration (30 seconds at 20 μl/minute) using the regeneration solution from Human Antibody Capture Kit (GE Healthcare). […] Measurements between each experimental data set were within the acceptable margins for this methodology.
The antibodies were captured on anti-human IgG chip surface followed by injection of 250 nM PAR2. The data were fitted to 1:1 interaction model.

For experiment [9], the target named is T4, Mouse PAR2 on Flp-In CHO cells. Put plainly: cell binding, flow cytometry/IntelliCyt.
The target in experiment [10] is T3, PAR2-3: P157: 1-377, glycosylated, …. Put plainly: SPR; IgG immobilised, detergent solubilised FL-N PAR2 StaR as analyte. The method, then: as §2, §3

Two molecules from US20250313621A1 (NXERA PHARMA UK, published 2025) can be followed below.

As usually defined, the Kd is the concentration at which binding is half-saturated. A low value points to higher affinity. What is called koff is a measure of how fast the partners let go of each other. A word on the kon: it is a measure of how fast the partners come together. As usually defined, the EC50 (read off the curve) is the midpoint of the concentration-response curve. A lower EC50 (read off the curve) goes with higher potency in that assay.

Some results are limits rather than exact numbers.

B1: Y022065 (antibody, human IgG1, lambda, V domains shown)
VH: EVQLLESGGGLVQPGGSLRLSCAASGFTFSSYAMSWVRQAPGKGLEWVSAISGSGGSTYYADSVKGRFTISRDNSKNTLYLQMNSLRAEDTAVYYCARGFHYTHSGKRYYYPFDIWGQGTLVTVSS
VL: QSALTQPASVSGSPGQSITISCTGTSSDVGSYNLVSWYQQHPGKAPKLMIYEGSKRPSGVSNRFSGSKSGNTASLTISGLQAEDEADYYCSQYATFIAFAVFGGGTKLTVLG
notes: also called clone Y022065; parental clone Y022065
Consider B1, for which the binding result with Wildtype human PAR 1 is “no binding (tested: 200 nM)”. For the same molecule, the “% Max Inhibition AP, IP-One” value in experiment [1] turned out to be 43%. In [2], this molecule gave a Kd of 5.3 nM, a koff of 0.00016 s⁻¹ and a kon of 30000 M⁻¹ s⁻¹. The binding result in experiment [3] is “no binding”. The “EC50 (read off the curve)” value in experiment [4] was around 4 nM. Moreover, the “IC50 (nM), SLIGKV agonist challenge, Human” value in experiment [5] was determined as 264 nM. For the same molecule, the “IC50 (nM), SLIGKV agonist challenge, Cyno” value in experiment [6] is above 2000 nM. Moreover, the “IC50 (nM), SLIGKV agonist challenge, Rhesus” value with Rhesus PAR2 on cells was above 2000 nM. For the same molecule, in experiment [7], the “EC50 (read off the curve)” value is around 7 nM.

B2: Y022054 (antibody, V domains shown)
VH: EVQLLESGGGLVQPGGSLRLSCAASGFTFSSYAISWVRQAPGKGLEWVSAISGSGGSTYYAESVKGRFTISRDNSKNTLYLQMNSLRAEDTAVYYCARGYAEFGVWGQGTLVTVSS
VL: DIQMTQSPSSLSASVGDRVTITCRASQSISSYLNWYQQKPGKAPKLLIYAASSLQSGVPSRFSGSGSGTDFTLTISSLQPEDFATYYCQQTWGGPQTFGQGTKVEIKR
B2: the “% Max Inhibition AP, IP-One” value in experiment [1] is 17%. In addition, in experiment [8], the Kd is 2.5 nM, the koff is 0.00029 s⁻¹ and the kon was 120000 M⁻¹ s⁻¹. Also, the binding result in [9] is on record as “no binding”. The “fold higher affinity compared to Y022063 and Y021171” value in [10] came out at 10 fold.
